Results published in patent publication US20110230406A1.

Target: rhBMP-2 (R&D Systems, Item number 355-BM/CF) (human) (UniProt P12643)
Assay: retention test: peptide-free EDC/NHS crosslinked collagen disc loaded with 40 micrograms rhBMP-2, spun, unbound rhBMP-2 in supernatant by ELISA; control for the affinity biomatrix

rhBMP-2 (R&D Systems, Item number 355-BM/CF) (human), sequence (P12643 283-396 limits assumed): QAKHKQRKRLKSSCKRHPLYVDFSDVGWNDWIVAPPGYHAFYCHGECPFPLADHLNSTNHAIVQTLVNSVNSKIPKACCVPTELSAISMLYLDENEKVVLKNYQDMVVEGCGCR

% rhBMP-2 incorporation: 40 % by weight
Substance: affinity peptide-free EDC/NHS crosslinked collagen disc (6 mm diameter)
